The values that follow come from article PMC2621155.

In this assay the target is rapsyn, endogenous in C2C12 myotubes (mouse (endogenous in C2C12)) (UniProt P12672). The assay is described as follows: co-IP; C2C12 myotube lysates, anti-rapsyn antibody and protein A agarose beads, blot for α-actinin; myotubes untreated, with agrin 10 ng/ml 18 hr, with agrin and STI-571, or with agrin and then 10 μM carbachol for 4 hr.
UniProt P12672, sequence (P12672 whole entry): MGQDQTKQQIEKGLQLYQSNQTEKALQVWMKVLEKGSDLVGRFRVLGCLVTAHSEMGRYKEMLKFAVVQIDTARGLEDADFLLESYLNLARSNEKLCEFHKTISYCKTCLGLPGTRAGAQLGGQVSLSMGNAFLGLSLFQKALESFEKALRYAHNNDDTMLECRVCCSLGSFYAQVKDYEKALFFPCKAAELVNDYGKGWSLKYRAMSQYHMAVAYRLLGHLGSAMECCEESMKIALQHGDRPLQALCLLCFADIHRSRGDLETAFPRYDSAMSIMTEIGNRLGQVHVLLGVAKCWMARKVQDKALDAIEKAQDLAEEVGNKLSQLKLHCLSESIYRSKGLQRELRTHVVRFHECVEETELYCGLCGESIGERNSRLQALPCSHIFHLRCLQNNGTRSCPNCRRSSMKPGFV

As for “α-actinin, endogenous in myotubes (from UniProt Q9JI91 1-894) (natural protein)”, the fold increase of the co-precipitation in agrin-treated against untreated myotubes is 6 to 10 fold.
